From the supplement of paper PMC6757056
± gives the standard deviation of the averaged measurements.

B1: library; a variant is named by its letters at N, in order (parent)
chain: GCUGUCACCGGUGUAUUACCCUAGUGGUCGACCGGUCUGAUGAGUCUNNNNNNAGACGAAACAGC

What was measured:
hypoxanthine [1] = variants of: B1; experiment: FACS-Seq fitted mean relative fluorescence mCherry/BFP without ligand (log10 relative fluorescence); ligand: hypoxanthine (xanthine aptamer); higher = higher reporter protein expression; settings: HEK293T, ligand present: no
How it was run: (§1)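 Enriched HEK293T cells carrying, by lentivirus, an mCherry reporter with the ribozyme switch and an EF1α-BFP marker spent 48 h with or without ligand and were sorted into 6 bins by mCherry/BFP. MiSeq sequencing of PCR-amplified bin genomic DNA gave bin counts. Fluorescence was calculated as the fitted normal mean of those counts. Counts were binned on log10(mCherry/BFP), and means were scaled to five spiked-in control ribozymes.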

hypoxanthine [2] = variants of: B1; experiment: normalized RNA/DNA level with ligand (relative to sTRSVctl = 100) (log10 (% of sTRSVctl)); ligand: hypoxanthine (xanthine aptamer); higher = less ribozyme self-cleavage, higher mRNA level; settings: ligand concentration (+) RNA-Seq: 5 mM, HEK293T, reporter: mCherry (pCS4076), ligand present: yes
How it was run: (§2)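 Library plasmids carrying ribozyme switches linked to mCherry, or to eGFP in some ligand experiments, were transfected into HEK293T at 4 µg per 6-well well, with any ligand added 1 h earlier. Seventy-two hours on, total RNA was extracted with EDTA and reverse-transcribed, amplified, barcoded and sequenced. RNA level was RNA over DNA reads normalized to a spiked-in non-cleaving sequence or to the top sequences, then scaled and log-transformed. The top set was 25 sequences, the transform was ×100 and log10, and sequences needed ≥100 DNA reads.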

hypoxanthine [3] = variants of: B1; experiment: normalized RNA/DNA level without ligand (relative to sTRSVctl = 100) (log10 (% of sTRSVctl)); ligand: hypoxanthine (xanthine aptamer); higher = less ribozyme self-cleavage, higher mRNA level; settings: HEK293T, reporter: mCherry (pCS4076), ligand present: no
How it was run: as §2

hypoxanthine [4] = variants of: B1; experiment: FACS-Seq fitted mean relative fluorescence mCherry/BFP with ligand (log10 relative fluorescence); ligand: hypoxanthine (xanthine aptamer); ligand concentration (+) FACS-Seq: 5 mM; higher = higher reporter protein expression; settings: HEK293T, ligand present: yes
How it was run: as §1

| Variant | FACS-Seq fitted mean (log10) (hypoxanthine [1]) | normalized RNA/DNA level with ligand (log10) (hypoxanthine [2]) | normalized RNA/DNA level without ligand (log10) (hypoxanthine [3]) | FACS-Seq fitted mean (log10) (hypoxanthine [4]) |
| --- | --- | --- | --- | --- |
| GCUGUCACCGGUGUAUUACCCUAGUGGUCGACCGGUCUGAUGAGUCUACAUAGAGACGAAACAGC | 0.305 ± 0.026 | 1.84 ± 0.072 | 1.52 ± 0.024 | 0.522 ± 0.046 |
| GCUGUCACCGGUGUAUUACCCUAGUGGUCGACCGGUCUGAUGAGUCUCCAUAUAGACGAAACAGC | 0.286 ± 0.014 | 1.96 ± 0.029 | 1.82 ± 0.057 | 0.542 ± 0.01 |
| GCUGUCACCGGUGUAUUACCCUAGUGGUCGACCGGUCUGAUGAGUCUCCAUACAGACGAAACAGC | 0.1516 ± 0.0013 | 1.9 ± 0.031 | 1.836 ± 0.011 | 0.283 ± 0.013 |
| GCUGUCACCGGUGUAUUACCCUAGUGGUCGACCGGUCUGAUGAGUCUGCAUCGAGACGAAACAGC | 0.0876 ± 0.11 | 1.964 ± 0.018 | 1.506 ± 0.0042 | 0.53188 ± 0.00023 |
| GCUGUCACCGGUGUAUUACCCUAGUGGUCGACCGGUCUGAUGAGUCUUCAUCAAGACGAAACAGC | 0.87 ± 0.1 | 1.99 ± 0.031 | 1.98 ± 0.044 | 0.763 ± 0.052 |
| GCUGUCACCGGUGUAUUACCCUAGUGGUCGACCGGUCUGAUGAGUCUCCAUGAAGACGAAACAGC | 0.311 ± 0.11 | 1.986 ± 0.016 | 1.788 ± 0.016 | 0.414 ± 0.064 |
| GCUGUCACCGGUGUAUUACCCUAGUGGUCGACCGGUCUGAUGAGUCUCCAUGGAGACGAAACAGC | 0.39 ± 0.0048 | 1.85 ± 0.07 | 1.47 ± 0.018 | 0.611 ± 0.053 |
| GCUGUCACCGGUGUAUUACCCUAGUGGUCGACCGGUCUGAUGAGUCUGCAUUGAGACGAAACAGC | 0.25 ± 0.015 | 1.88 ± 0.0068 | 1.4 ± 0.022 | 0.602 ± 0.062 |
| GCUGUCACCGGUGUAUUACCCUAGUGGUCGACCGGUCUGAUGAGUCUACAUGUAGACGAAACAGC | 0.399 ± 0.057 | 1.91 ± 0.052 | 1.65 ± 0.061 | 0.567 ± 0.024 |
| GCUGUCACCGGUGUAUUACCCUAGUGGUCGACCGGUCUGAUGAGUCUACAUGGAGACGAAACAGC | 0.335 ± 0.022 | 1.87 ± 0.035 | 1.29 ± 0.027 | 0.631 ± 0.1 |
| GCUGUCACCGGUGUAUUACCCUAGUGGUCGACCGGUCUGAUGAGUCUACAUGAAGACGAAACAGC | 0.3098 ± 0.0019 | 1.91 ± 0.019 | 1.66 ± 0.026 | 0.509 ± 0.021 |
| GCUGUCACCGGUGUAUUACCCUAGUGGUCGACCGGUCUGAUGAGUCUGCAUGGAGACGAAACAGC | 0.196 ± 0.083 | 1.83 ± 0.052 | 1.33 ± 0.063 | 0.701 ± 0.049 |
| GCUGUCACCGGUGUAUUACCCUAGUGGUCGACCGGUCUGAUGAGUCUGCAUGCAGACGAAACAGC | -0.393 ± 0.035 | 1.926 ± 0.01 | 1.74 ± 0.14 | -0.314 ± 0.05 |
| GCUGUCACCGGUGUAUUACCCUAGUGGUCGACCGGUCUGAUGAGUCUACAUCGAGACGAAACAGC | 0.306 ± 0.048 | 1.932 ± 0.019 | 1.57 ± 0.016 | 0.584 ± 0.052 |
| GCUGUCACCGGUGUAUUACCCUAGUGGUCGACCGGUCUGAUGAGUCUACAUUCAGACGAAACAGC | 0.36 ± 0.034 | 1.979 ± 0.0095 | 1.92 ± 0.062 | 0.421 ± 0.02 |
| GCUGUCACCGGUGUAUUACCCUAGUGGUCGACCGGUCUGAUGAGUCUUCAUGAAGACGAAACAGC | 0.457 ± 0.055 | 1.885 ± 0.014 | 1.5 ± 0.032 | 0.53 ± 0.061 |
| GCUGUCACCGGUGUAUUACCCUAGUGGUCGACCGGUCUGAUGAGUCUGCAUAUAGACGAAACAGC | 0.326 ± 0.025 | 1.93 ± 0.031 | 1.736 ± 0.0026 | 0.329 ± 0.014 |
| GCUGUCACCGGUGUAUUACCCUAGUGGUCGACCGGUCUGAUGAGUCUUCAUACAGACGAAACAGC | 0.306 ± 0.022 | 1.98 ± 0.041 | 1.89 ± 0.056 | 0.474 ± 0.0069 |
| GCUGUCACCGGUGUAUUACCCUAGUGGUCGACCGGUCUGAUGAGUCUUCAUAGAGACGAAACAGC | 0.588 ± 0.1 | 1.89 ± 0.033 | 1.69 ± 0.022 | 0.567 ± 0.11 |
| GCUGUCACCGGUGUAUUACCCUAGUGGUCGACCGGUCUGAUGAGUCUUCAUAAAGACGAAACAGC | 0.7537 ± 0.0032 | 1.93 ± 0.029 | 1.75 ± 0.025 | 0.622 ± 0.0065 |
| GCUGUCACCGGUGUAUUACCCUAGUGGUCGACCGGUCUGAUGAGUCUCCAUUCAGACGAAACAGC | -0.142 ± 0.078 | 2.022 ± 0.0033 | 1.9 ± 0.07 | 0.309 ± 0.014 |
